Values quoted from earlier work as cited in patent US10744082B2, “Compositions for treatment of xerostomia and for tooth treatment” (3 IN 1 DENTAL PLLC, priority 2013, dated 2020).

System: lean meat
Conditions: usual grade of papain

B1: Papain (protein, UniProt P00784 134-345, looked up)
Papain: IPEYVDWRQKGAVTPVKNQGSCGSCWAFSAVVTIEGIIKIRTGNLNEYSEQELLDCDRRSYGCNGGYPWSALQLVAQYGIHYRNTYPYEGVQRYCRSREKGPYAAKTDGVRQVQPYNEGALLYSIANQPVSVVLEAAGKDFQLYRGGIFVGPCGNKVDHAVAAVGYGPNYILIKNSWGTGWGENGYIRIKRGTGNSYGVCGLYTSSFYPVKN
notes: Protease enzyme; white or grayish-white, slightly hygroscopic powder, designated USP
Which “potency: weight of lean meat digested” value does the source give for B1 here?
Its value is roughly 35 times its weight.
